Test: soluble on expression in E. coli; label from the status in PepcDB or PDB records

| Sequence | soluble on expression in E. coli |
| --- | --- |
| LLLNLFNFRNFKDLFRNDINMMTVEEILYNEIKEFQASDRRAWMVIGDRYYRCENDILNRRIVRHTESGDIEDRSKANNRLAHGFVKNLVDEKIGYLLTKDYSLKCDNKEYIEKVKNVLGKYFQYTLTRLGYEASNKGIAWLQVYINEQGKFGMMIIPAEQCVPLWKDNTHTELYGMIRYYVQTVYEGKEKKQITRVEYYTDKEVYFYVLDNDHLIPDIEQYEGGPILHYKKGEEGRSWGKVPFIAWKNNHLEYPDVKFIKSLVDAYDKSRSEIDNFIEETKNLIYVLKGYGGENLSDFMKDLNYYRAIKIDDPEHGGVDTLTPKIDIQAAKEHFEQLKRDINEFGQGVPKDLDKYGNSPSGTALKFLYSGLDLKCNHLEVEFRQSFNQLLYFVNRYLAENGQGNYENENVELIFNRDIQINETETINNCVNSKGIISDETILANHPWVSDVEEELKQIEKERKSEEPPMFGEGDEE | soluble |
| LLQTMLSMTSHGPAQVFTERYQLIVQPLGLSQQVEKDSLDLLADYLHGFALSISCCHDASLIKTDMLDGPLKLICSSLLASRT | not soluble |
| LLTPQYISEAKIYVLSKETTLTSLADLQMGTQLTQDYKELIGSRPVMQEVINTLNLDITYRQLAEKLKLENPKDTRILYLTVTDPNPYMAKAIVDEIANAASDYIGEIMEMTPPKLIEDGMVATVQTSPNVKKN | not soluble |
| LMPTERIDINEREDCTASEMTAPTVPVALVTGAAKRLGRSIAEGLHAEGYAVCLHYHRSAAEANALSATLNARRPNSAITVQADLSNVATAPVSGADGSAPVTLFTRCAELVAACYTHWGRCDVLVNNASSFYPTPLLRNDEDGHEPCVGDREAMETATADLFGSNAIAPYFLIKAFAHRVAGTPAKHRGTNYSIINMVDAMTNQPLLGYTIYTMAKGALEGLTRSAALELAPLQIRVNGVGPGLSVLVDDMPPAVWEGHRSKVPLYQRDSSAAEVSDVVIFLCSSKAKYITGTCVKVDGGYSLTRA | soluble |
| LNAAMNLKREFVHRVQRFVVNPIGRQLPMTMLETIGRKTGQPRRTAVGGRVVDNQFWMVSEHGEHSDYVYNIKANPAVRVRIGGRWRSGTAYLLPDDDPRQRLRGLPRLNSAGVRAMGTDLLTIRVDLD | soluble |
| LPDGIEEVLPPEAARIEVARRQVLDLFQSWGYEFVVTPHIEYLESLLTGAGSDLDLRTFKVIDPQSGRQMGFRADITPQVARIDAHTLKREGPSRLCYAGSVLHAQPRALSSSRSPIQLGAELYGDASPSSDVEVISLMLAMLQLADVPDVHMDLGHVGIYRGLARAAGLSGEVEQQLFDALQRKAIDEVVALTANLPPELASMLRALVDLCGGREVLDAARDRLAGAPAPVLEALDDLLAIADRLAARFPQLPLYFDLGELRGYHYHTGVVFAVFVPGVGQSIAQGGRYDDIGADFGRARPATGFSTDLKTLVTLGQAEIVL | not soluble |
| LPFDGIVTKNIVSELSDILTGARIEKIYQPEPDEIIINLRTKGQNLKLLLSANASYPRIHLTDVTKENPINPPVFCMLLRKHLSGGKITKIDFHDFERVVTIHIETIDELGDLTFKKLVVEIMGKHSNIILVNNENKIIDSIKHVDSDISRVREVMPARPYTLPPGQDKINPLELDIDLLFSKAKEQGDPRISKFFLNNIKGFSPLLCEEICHRADVDPRLPVSSLSEDTIQNLKKVLKEIISKIENSEFTPCIIWNGDDRQKAVDFHSLEIKQYNTVDFYPSISRVLDLFYTIKDTSERLAQKKADLAKILNNCIDRCNKKISIHMDTLREVAEREKFKLYGELITANIYCIPKNASKVSLLNYYSENGEYVEVPLDENLLPQENAQRYFKKYAKAKAAYIHATQQLEEARGELSYLESVLHSLENSNSFEDIDDIRQELAEQGYLPSKKKRPEKKNSKNFTPYTYKSTDGFYIYVGKNNVQNDFLTLKFASSNDIWLHTKNIPGSHVIIRKDRGEIPDSTLFQAAMLAAYHSKAKNSSHVEVDYTKVKNVKKPNGAKPGMVIYDNYKTIIVTPDENVVNNLRMENR | soluble |
| LPLCDSLIIWLQTFKTASPCQDVKQLTNGVTMAQVLHQIDVAWFSESWLSRIKDDVGDNWRIKASNLKKVLHGITSYYHEFLGQQISEELIPDLNQITECADPVELGRLLQLILGCAVNCEKKQEHIKNIMTLEESVQHVVMTAIQELMSK | soluble |
| LQEPMYVYSHDGLLIAIFGEIRRYPVQIKEVPEQLKQAFLATEDARFYEHSGIDYKGIARAIWLLATTNEKRVPGGSTITQQVARQFFLNSEYSYKRKLAEILLARKIESQLKKDEILELYLNKSFFGNRAYGIAAAAEFYYGKKLNELNLDEMASLAGIPKFPSS | not soluble |
| LREQVQDLFNKKYGEALGIKYPVQVPYKRIKSNPGSVIIEGLPPGIPFRKPCTFGSQNLERILAVADKIKFTVTRPFQGLIPKPDE | soluble |
| LRRTALNGRFCRLEPLDVDRHAADLFAAYALGDNSDWTWLASTRPESVTATAHWIAGKVNDDVLVPYAVVDLRSEQAVGIVSYMAIEREMGTVEIGHVTWSRRMKNTPLGTEAVWLLLKNGFDHGYRRLEWKCDSMNVASRRAAERLGFSWEGRLRQRLVRKGRTRDSDMLSIIDGEWPARD | not soluble |
| LRVRKAIIPAAGLGTRFLPATKAQPKEMLPIVDKPTIQYIVEEAIKSGIEDIIIISGRSKRAIEDHFDKSYELEQELEKKGNHDLLKLVQDISNLANIHYIRQKEAKGLGHAIYCAKSFIGNEPFAVLLGDDIVDSEVPCIKQLMDVYDKYRTTVLGVQKVPEDQVSKYGIVGGEIVSDRVYKVKDLVEKPDTASAPSNIAILGRYIITPRIFDYLENAKPGKGGEIQLTDALRELMGEEEMYAYDFIGKRYDVGNKLGFLQATVEFALARDDLKEEFEAYLKEIICKL | soluble |
| LSESDRGASCAPIGAIADAVKSGKVGSCVNNEYDVPGGKVEDFVSGRAYWSPSTGAHALYGRINARYSEMGGPQSWLGFPISSEFAIKDNARVVQFQNGNIYWSPQRGAIAVPKDIVDKWGEQQWENGFLGFPVAEAKEVAGGFIQEFEGGLVVRTKDNKNQWLRGEIAKKYREMKTAESELGFPVSDEIKINGGAFQQFEHGNIYWSAATGAHFIRKGDIFNTWGVKKWEQGELGFPVTDHTQIPAGGEEITFQHGKISQVNGVIREERR | not soluble |
| LSGMTGNQSPAALMSSNIDLLDAITPNVRDALTALFANIACYVLGSIWFRAGVAERIQASAFVSPGKLKNNASKKSGPISQQDLLILASRFVSPTRAYESFSRFSTEAVKSDSWHKAATPELIAHTERLLAGVLGASSASLVMDSVLQGRDLALDEVFSLVDEASSKIMLSQDMLRGAIEHAYEGMSVIDSDLNLVAWNYKYVELYQYPEGFLQQGMPISEVI | not soluble |
| LSPSLPSVEALRNVQLQIPLKVYSEDGKLISEFGEMRRTPIRFADIPQDFIHALLSAEDDNFANHYGVDVKSLMRAAAQLLKSGHIQTGGSTITMQVAKNYFLTNERSFSRKINEILLALQIERQLTKDEILELYVNKIYLGNRAYGIEAAAQVYYGKPIKDLSLAEMAMIAGLPKAPSRYNPLVNPTRSTERRNWILERMLKLGFIDQQRYQAAVEEPINASYHVQTPELNAPYIAEMARAEMVGRYGSEAYTEGYKVITTVRSDLQNAASQSVRDGLIDYDQRHGYRGPETRLPGQTRDAWLKHLGQQRSIGGLEPAIVTQVEKSGIMVMTRDGKEEAVTWDSMKWARPFLSNNSMGPMPRQPADVAQAGDQIRVQRQEDGTLRFVQIPAAQSALISLDPKDGAIRSLVGGFSFEQSNYNRAIQAKRQPGSSFKPFIYSAALDNGFTAASLVNDAPIVFVDEYLDKVWRPKNDTNTFLGPIPLREALYKSRNMVSIRVLQGLGIERAISYITKFGFQRDELPRNFSLALGTATVTPMEIAGAWSVFANGGYKVNPYVIERIESRDGQVLYQANPPRVPVEEQVAADAEDAGNPGDPEHPESAEGEGSIEAQQVAAKAQTTFEPTPAERIIDARTAYIMTSMLQDVIKRGTGRRALALKRTDLAGKTGTTNDSKDGWFSGYNSDYVTSVWVGFDQPETLGRREYGGTVALPIWIRYMGFALKDKPMHTMAEPPGIVSLRIDPVTGRSAAPGTPGAYFEMFKNEDTPPSVNELPPGSFPGSPLPDDEGAPIDL | not soluble |
| LTVHYDLQLYKINYKTQSPDGNLTIASGLVAMPIHPVGQVGIISYQHGTRFERNDVPSRNNEKNYIYLAAYGNSAGYMTVMPDYLGLGDNELTLHPYVQAETLASSSIDMLFAAKELANRLHYPISDKLYLAGYSEGGFSTIVMFEMLAKEYPDLPVSAVAPGSAPYGWEETMHFVMLEPGPRATAYLAYFFYSLQTYKSYWSGFDEIFAPPYNTLIPELMDGYHAVDEILQALPQDPLLIFQPKFSNGIISKTDRNTEILKINFNHYDFKPTAPLLLVGTKGDRDVPYAGAEMAYHSFRKYSDFVWIKSVSDALDHVQAHPFVLKEQVDFFKQFERQE | not soluble |
| LVTISSTSAASLPTMPPSGYDQVRNGVPRGQVVNISYFSTATNSTRPARVYLPPGYSKDKKYSVLYLLHGIGGSENDWFEGGGRANVIADNLIAEGKIKPLIIVTPNTNAAGPGIADGYENFTKDLLNSLIPYIESNYSVYTDREHRAIAGLSMGGGQSFNIGLTNLDKFAYIGPISAAPNTYPNERLFPDGGKAAREKLKLLFIACGTNDSLIGFGQRVHEYCVANNINHVYWLIQGGGHDFNVWKPGLWNFLQMADEAGLTRDGNT | soluble |
| LYLAGIGQYAALLEAGFARARSAEETVRLLVTSYIDWVVANPDWARFILHSRGRVEAGELGERLRADNQAHFARIHAALAGYRAEGLFREMPDDCFASVVIGPAHDLARQWLAGRTRVALADCRELLAQVAWDSVRAA | soluble |
| MAAAAAAKIAPSMLSSDFANLAAEADRMVRLGADWLHMDIMDGHFVPNLTIGAPVIQSLRKHTKAYLDCHLMVTNPSDYVEPLAKAGASGFTFHIEVSRDNWQELIQSIKAKGMRPGVSLRPGTPVEEVFPLVEAENPVELVLVMTVEPGFGGQKFMPEMMEKVRALRKKYPSLDIEVDGGLGPSTIDVAASAGANCIVAGSSIFGAAEPGEVISALRKSVEGSQNKS | soluble |
| MAAAAELSLLEKSLGLSKGNKYSAQGERQIPVLQTNNGPSLMGLTTIAAHLVKQANKEYLLGSTAEEKAMVQQWLEYRVTQVDGHSSKNDIHTLLMDLNSYLEDKVYLTGYNFTLADILLYYGLHRFIVDLTVQEKEKYLNVSRWFCHIQHYPGIRQHLSSVVFIKNRLYTNSH | soluble |
| MAAERLDPWGAVEIKDYDRLLRTFGIRPFSEVLPLLRKAGMEPSFLMRRGIIFGHRDFDKILEAKARGERVAVLTGFMPSGKFHFGHKLTVDQLIYLQKNGFKVFVAIADAEAFAVRRIGREEAVRIAVEEYIANMIALGLDPKDTEFYFQTNRGTPYFRLIQLFSGKVTAAEMEAIYGELTPAKMMASLTQAADILHVQLDEYGGYRHVVVPVGADQDPHLRLTRDLADRMAGVVELERPASTYHKLQPGLDGRKMSSSRPDSTIFLTDPPEVARNKLFRALTGGRATAEEQRRLGGVPEVCSVYHMDLYHLMPDDGEVKHIYTSCRLGKILCGECKQIAWEKLERFLAEHQSRLEKAKTIAWKLVEPPRF | soluble |
